Test results reported in publication PMC11310338.

Biological target: phosphorylated CTD peptide (pS2pS5) of RNAP2 labeled with an NH2 terminal FITC group
Assay: fluorescence polarisation

Kd	Binder
622 nM	SCAF8-CID domain fragment comprising residues 1-139 (domain or fragment) MEAVKTFNSELYSLNDYKPPISKAKMTQITKAAIKAIKFYKHVVQSVEKFIQKCKPEYKVPGLYVIDSIVRQSRHQFGQEKDVFAPRFSNNIISTFQNLYRCPGDDKSKIVRVLNLWQKNNVFKSEIIQPLLDMAAGIP
366 nM	Human SCAF4-CID domain fragment comprising residues 1-139 (domain or fragment) MDAVNAFNQELFSLMDMKPPISRAKMILITKAAIKAIKLYKHVVQIVEKFIKKCKPEYKVPGLYVIDSIVRQSRHQFGTDKDVFGPRFSKNITATFQYLYLCPSEDKSKIVRVLNLWQKNGVFKIEIIQPLLDMAAGTS
